Measured values: patent US20030022247A1, “Substance which inhibits binding of information transfer molecule for 1175-tyrosine phosphorylated KDR/FLK-1 and usages of the same” (priority 2000, published 2003)
Values belong to the molecule of their own block, whether it stands above or below them. Square brackets hold non-standard residues; d marks the D form. Ends that are not written are not given here. pY = N[C@@H](Cc1ccc(OP(=O)(O)O)cc1)C(=O)O

Legend:
[1] = test system: various cancer cells transplanted into mice; details: cited from earlier work
[2] = biological target: T1, 1175-tyrosine phosphorylated KDR/Flk-1 (Homo sapiens, UniProt P35968); experiment: Tissue immunostaining of human umbilical cord vein endothelial cells; assay type: cell-based; details: 1 μg/ml peptide; cells 5 minutes after the VEGF stimulation
T1 construct: expressing endogenous KDR/Flk-1; host or cells: human umbilical cord vein endothelial cells (HUVEC)
Protocol: After blocking the fixed cells for 30 minutes with PBS containing 1% goat serum, tissue immunostaining was carried out using the anti-PY1175 antibody. The detection was carried out by fluorescence microscopic observation 30 minutes after treatment with an FITC-labeled anti-rabbit IgG antibody (manufactured by Cappel) diluted to 1/100. […] Accordingly, the anti-PY1175 antibody was useful for the detection of the 1175-tyrosine phosphorylation of KDR/Flk-1 by not only immunoblotting but also tissue immunostaining.

[3] = biological target: T2, binding of the auto-phosphorylated KDR/Flk-1 and PLC-γ (Homo sapiens, UniProt P19174+P35968); experiment: In vitro binding of GST-PLC-γ C-SH2 to KDR/Flk-1 from NIH3T3-KDR cell extract; assay type: biochemical; details: coexisting with GST-PLC-γ C-SH2 beads and extract of VEGF-stimulated NIH3T3-KDR
T2 construct: a fusion protein of GST and SH2 domain of the C-terminal side of PLC-γ (GST-PLC-γ C-SH2); host or cells: NIH3T3-KDR cell extract (KDR/Flk-1)
Protocol: Onto glutathione-Sepharose 4B beads (manufactured by Amersham Pharmacia Biotech), 1.5 μg of GST, a fusion protein of GST and SH2 domain (2 domains) of PLC-γ (GST-PLC-γ SH2-SH2), a fusion protein of GST and SH2 domain of the N-terminal side of PLC-γ (GST-PLC-γ N-SH2) and a fusion protein of GST and SH2 domain of the C-terminal side of PLC-γ (GST-PLC-γ C-SH2) (all manufactured by Santa Cruz Biotechnology Inc.) was immobilized respectively, and the cell extracts were added thereto, followed by incubation at 4° C. for 2 hours. The beads were washed three times with a cooled cell extraction buffer and heated in an SDS sample buffer to dissolve the protein bound to the beads, and then SDS-PAGE was carried out. The KDR/Flk-1 bound to each of the added proteins was detected by immunoblotting using the anti-KDR/Flk-1 antibody. The KDR/Flk-1 was detected in the VEGF-stimulated cell with GST-PLC-γ SH2-SH2 and GST-PLC-γ C-SH2, but KDR/Flk-1 was not detected with GST-PLC-γ N-SH2.
The same test of (2) was carried out by allowing the anti-PY1175 antibody and the PY1175 peptide to coexist at the time of the reaction of GST-PLC-γ C-SH2-immobilized beads with the cell extract. As a result, KDR/Flk-1 was not detected even in the VEGF-stimulated cell, and binding of the auto-phosphorylated KDR/Flk-1 and PLC-γ was inhibited by the anti-PY1175 antibody and the PY1175 peptide.

Flt-1 = Flt-1 (Homo sapiens, UniProt P17948); details: VEGF binding to Flt-1; cited from earlier work
[4] = biological target: T3, mutated KDR/Flk-1 Y1175F (1175-tyrosine replaced by phenylalanine) (human, UniProt P35968 20-1356); experiment: immunoprecipitation with anti-KDR/Flk-1 antibody, immunoblotting with anti-PLC-γ antibody
T3 construct: Expressed in MSS31 cells by an adenovirus vector, VEGF-stimulated; cell extract; Phosphorylation at other tyrosines not specified

inhibition of anti-PY1175 antibody staining by coexisting peptide [2]: staining was inhibited
inhibition of binding of auto-phosphorylated KDR/Flk-1 and PLC-γ (GST-PLC-γ C-SH2) [3]: inhibited
Molecule: PY1175 peptide: SEQ ID NO:1: cysteine added to N-terminus of positions 1171 to 1180 of human KDR/Flk-1, tyrosine 1175 phosphorylated (CDGKD[pY]IVLPI)

inhibition of binding of auto-phosphorylated KDR/Flk-1 and PLC-γ (GST-PLC-γ C-SH2) [3]: inhibition was not found
Molecule: Y1175 peptide: SEQ ID NO:2: the same amino acid sequence of the PY1175, but the tyrosine is not phosphorylated (CDGKDYIVLPI; a peptide SEQ ID NO1 without phosphorylation) [reference compound]

Further lines, the molecule ahead of its results:

Molecule: Cc1cc(C)c(/C=C2\C(=O)Nc3ccccc32)[nH]1 [SU5416]
angiogenesis, growth or metastasis of cancer cells [1]: inhibits angiogenesis, growth or metastasis

Molecule: vascular endothelial growth factor [VEGF]
Kd (Flt-1): 0.02 nM

B1: phospholipase C-γ (PLC-γ) (enzyme, mouse, UniProt Q62077 2-1302, looked up)
chain: AGVATPCANGCGPGAPSEAEVLHLCRSLEVGTVMTLFYSKKSQRPERKTFQVKLETRQITWSRGADKIEGSIDIREIKEIRPGKTSRDFDRYQEDPAFRPDQSHCFVILYGMEFRLKTLSLQATSEDEVNMWIKGLTWLMEDTLQAATPLQIERWLRKQFYSVDRNREDRISAKDLKNMLSQVNYRVPNMRFLRERLTDLEQRSGDITYGQFAQLYRSLMYSAQKTMDLPFLETNALRTGERPEHCQVSLSEFQQFLLEYQGELWAVDRLQVQEFMLSFLRDPLREIEEPYFFLDELVTFLFSKENSVWNSQLDAVCPDTMNNPLSHYWISSSHNTYLTGDQFSSESSLEAYARCLRMGCRCIELDCWDGPDGMPVIYHGHTLTTKIKFSDVLHTIKEHAFVASEYPVILSIEDHCSIAQQRNMAQHFRKVLGDTLLTKPVDIAADGLPSPNQLRRKILIKHKKLAEGSAYEEVPTSVMYSENDISNSIKNGILYLEDPVNHEWYPHYFVLTSSKIYYSEETSSDQGNEDEEEPKEASSSTELHSSEKWFHGKLGAGRDGRHIAERLLTEYCIETGAPDGSFLVRESETFVGDYTLSFWRNGKVQHCRIHSRQDAGTPKFFLTDNLVFDSLYDLITHYQQVPLRCNEFEMRLSEPVPQTNAHESKEWYHASLTRAQAEHMLMRVPRDGAFLVRKRNEPNSYAISFRAEGKIKHCRVQQEGQTVMLGNSEFDSLVDLISYYEKHPLYRKMKLRYPINEEALEKIGTAEPDYGALYEGRNPGFYVEANPMPTFKCAVKALFDYKAQREDELTFTKSAIIQNVEKQDGGWWRGDYGGKKQLWFPSNYVEEMINPAVLEPEREHLDENSPLGDLLRGVLDVPACQIAIRPEGKNNRLFVFSISMPSVAQWSLDVAADSQEELQDWVKKIREVAQTADARLTEGKMMERRKKIALELSELVVYCRPVPFDEEKIGTERACYRDMSSFPETKAEKYVNKAKGKKFLQYNRLQLSRIYPKGQRLDSSNYDPLPMWICGSQLVALNFQTPDKPMQMNQALFMAGGHCGYVLQPSTMRDEAFDPFDKSSLRGLEPCVICIEVLGARHLPKNGRGIVCPFVEIEVAGAEYDSTKQKTEFVVDNGLNPVWPAKPFHFQISNPEFAFLRFVVYEEDMFSDQNFLAQATFPVKGLKTGYRAVPLKNNYSEDLELASLLIKIDIFPAKENGDLSPFSGISLRERASDASSQLFHVRAREGSFEARYQQPFEDFRISQEHLADHFDSRERSTSDGPSSATNLIEDPLHDKLWKCSL
notes: whole, on cells; Endogenous intracellular PLC-γ co-precipitated with KDR/Flk-1 from MSS31 cell extracts
binding result [4]: no binding
